# Measured values: the RNAGym collection of RNA variant scans (doi:10.1073/pnas.2313332121)
# Variants at the floor of the assay were thinned out.
# B1: TPR 5TU (parent)
# chain: GGAUCUUCUCGAUCUAACAAAAAAGACAAAUCUGCCACAAAGCUUGAGAGCAUCUUCGGAUGCAGAGGCGGCAGCCUUCGGUGGCGCGAUAGCGCCAACGUUCUCAACUAUGACACGCAAAACGCGUGCUCCGUUGAAUGGAGUUUAUCAUG
# Variants of: B1
# Assay: polymerase ribozyme fitness, log enrichment relative to wild type (log ratio); higher = more active; in vitro selection for triplet polymerase activity
# In short: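 Streptavidin-bead capture of gel-excised extended constructs, followed by RT-PCR, closed a single triplicate in vitro selection round. That round began by annealing PCR-built, transcribed mutant libraries of each subunit of a heterodimeric triplet polymerase ribozyme with a biotinylated primer, the partner subunit and triplets, then incubating them frozen at −7 °C. After Illumina sequencing of inputs and outputs, genotypes needed ≥10 input reads and ≥1 read per output. Fitness is the base-2 logarithm of genotype enrichment over wild-type enrichment, using inverse-variance-weighted replicate averages.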
row,Variant,polymerase ribozyme fitness (log ratio)
1,A16C C43A A52C G70A C131U,≤ -4.2
2,A16U U53A C57A C95A,-2.57
3,U15G U53A C95A,-1.48
4,U15G C43U C57A C85G A106C,≤ -4.2
5,A16U C75U G86A,-2.59
6,A16G G92U C93U C118U,-2.94
7,C14U A30G G48A C76G A98U U102G,≤ -4.2
8,A16G A89U A115G A119G U134G U144A,≤ -4.2
9,U15C C54A C57G C87U A150G,-3.99
10,U15G A41C C93U,-1.93
11,U15G A21G U135C,-2.43
12,A16G C108U G126A,≤ -4.2
13,A16U C93G C105G,≤ -4.2
14,U15G C85A C123U,-0.906
15,U15G A16U C85U C118U,-1.42
16,C14U U45A G50C C57A A91U C103G C105A,≤ -4.2
17,U15G A39U G50C G70C G88U C105U,≤ -4.2
18,A16C A20U A40U C54U G58U A60C,-4.15
19,U15G C36U A47C C96G U144C,≤ -4.2
20,A16C A120C G140A,-3.75
21,A16C A26G G86U,≤ -4.2
22,A16G G25A U45C U53A A91C C103G C108U C125U,≤ -4.2
23,A16C A40C G80A G92U A113G U135C G140A,≤ -4.2
24,C14U U15C A16U A19G A30U A39C G48U G50A G70U A113U G141U,≤ -4.2

row,Variant,polymerase ribozyme fitness (log ratio)
1,A16U C36U C51A G92A,≤ -4.2
2,U15G G59A G88A C132U,≤ -4.2
3,A16C A22C C54U A113U,-4.06
4,C14U C99A G136A,-2.47
5,A16U A22U A23G A60U C95U C108U A119G C123U,≤ -4.2
6,A16C G86C,-3.43
7,A16G A91G C118U A150U,-3.08
8,A16C A19C G84C C96U G126C,-3.42
9,A16C G58U U101G C105A U144G,≤ -4.2
10,A16U C57G U77A G88U,≤ -4.2
11,C14U C51U U56A A119G,-2.23
12,A16G C85U,-0.908
13,A16G C85G,-2.6
14,C14U C75G U101G U135A,≤ -4.2
15,U15G C57U G58C C76A,-0.888
16,A16U G48U G86C C87A A97U C123U U148G,≤ -4.2
17,U15G C72U C79A C93U G94U C96A G140A,≤ -4.2
18,A16C A30U G58U A66U A73G,≤ -4.2
19,C14U U44A C57A G58C A73U G83C A91U,≤ -4.2
20,A16C A52U,-2.03
21,A16G A26U C51U A52C C87U,≤ -4.2
22,A16G A37U G92U,-2.9
23,A16G U53A,-1.79
24,A16U C18G A21U A98G C105U,≤ -4.2

row,Variant,polymerase ribozyme fitness (log ratio)
1,A16C A22U A97U C114A U135G,≤ -4.2
2,C14U U45G A47G G48C C69U C76G U109A,≤ -4.2
3,A16C A21C G50A C85U C125G,-2.99
4,A16U A47C G59A C87G U90A U101A A113G,≤ -4.2
5,U15A G42U C87G G94A C99G C125U U148A,≤ -4.2
6,C14U G83A C116A G141A,-3.95
7,U15C A17U C51U G83A C123G G152A,-2.38
8,C14U G92C,-1.88
9,C14U C85A,-2.54
10,C14U G92A C116G,-3.86
11,C14U C51U A66G C87A C116U U148C,≤ -4.2
12,A16G G48U U109G,-3.48
13,A16G A39G G68A C95A C103G C108U U111G A115G C123U,≤ -4.2
14,A16U C38G U61A C75G G80A G100A G136U,≤ -4.2
15,U15A A28U G34A A47U C96U G117A,≤ -4.2
16,A16U A19U G80A U144G,-2.53
17,U15G G48A C116U G152A,-2.5
18,A17C A24U G48C A89G C93G G128U,≤ -4.2
19,U15G A16U C95U A121U U130G,≤ -4.2
20,A16G G46A A73G G88U G94A C114G,≤ -4.2
21,A16C C27G A49G G50A A60C C79A A91U C105G,≤ -4.2
22,A16U C116A G136A G140C,≤ -4.2
23,C14U A37C,-1.79
24,A16U A17C A24G A49G C76A C87A C99G,≤ -4.2

row,Variant,polymerase ribozyme fitness (log ratio)
1,A16U A22U A52C C87A A107C C125A U134C,≤ -4.2
2,C14U A26G C38U U61G C87A U90A,-3.51
3,U15C U56A G94A A142G,-0.297
4,A16G A20C A22C C32G A66G C118G G126A C132A,≤ -4.2
5,U15A G84U C95U G143C,-4.14
6,A16G C95U C96A G100U U101A C108A U139C U144A,≤ -4.2
7,A16C C75A C76A C125G,≤ -4.2
8,C14U A41U G46A A52U C63G C93U C105G,≤ -4.2
9,U15G A29U C75G C87G G88U A119G C149A,≤ -4.2
10,U15A A142C A147U,-1.65
11,A16U A24C C27U C85U G126U,≤ -4.2
12,A16U A41U,-2.64
13,U15G G92U,-0.561
14,C14U C36G G71U A122U G124U,≤ -4.2
15,A16U G84U,-3.5
16,C14U G94A C108U A137U,-4.03
17,U15C U56G C63U C95A C96A A106G,-1.5
18,A16U A20G A37C C95G U102G A113U,≤ -4.2
19,C14U G84C A122G G136A,-3.51
20,A16C A19U C57G A73U A91U G140A U145A,≤ -4.2
21,U15A G46U A47C C72U G88U G94A C95G A97G C108G A115G,≤ -4.2
22,U15A U55A U56A C69U C79U G86A A91U A106C A121G C125U A142C,≤ -4.2
23,A16C G58C G83U A119C,-1.98
24,U15C A22C C118A U144A,-0.0778

row,Variant,polymerase ribozyme fitness (log ratio)
1,A16U C32A C35G C96A G124C U144C,≤ -4.2
2,U15A C87U,-0.632
3,A16G U33G C93A C95A C103U A121G,≤ -4.2
4,U15G C54G G81A C95U,-2.2
5,C14U A73G C75G C87A A98G U111G,≤ -4.2
6,C14U G65C C87G C96U C132U U139G,≤ -4.2
7,A16C C96G G140U,≤ -4.2
8,C14U U53A,-2.41
9,A16U U55A,-2.64
10,A16U G25U C27U A28U C43U G94C C99G C125A U148C U151G,≤ -4.2
11,C14U C93U,-2.62
12,U15G A29U C76A G83A,≤ -4.2
13,U15C A41C C57U C76U C93U,-0.0442
14,A16U G50A G92U A98G C132G A142U,≤ -4.2
15,A16C G48A C51U C96G,-3.07
16,U15G G81A C118A A119C G133A A138U,≤ -4.2
17,A16U U56A A60U G141U,-2.12
18,A16G C85G G86U A89C A107G,≤ -4.2
19,U15A G25U A60G G74A C75A A142U,≤ -4.2
20,C14U G25U U31G C43A A47C G62A A91G G94C U104C A138U G140C U145G,≤ -4.2
21,U15G C57A A98U U102A A120U A122U,-1.85
22,A16U C36A G92U A150U,≤ -4.2
23,U15C G86A,0.14
24,U15A C38A A73U G83U G84C,≤ -4.2

row,Variant,polymerase ribozyme fitness (log ratio)
1,A16U A28C U55A C69A G71A G88C U102G C123U U130G,≤ -4.2
2,U15G G59C A73G C85A,-2.7
3,A16G C93A,-2.12
4,C14U U15A A20G C38U C57U U90C U102G A119G A122C,≤ -4.2
5,A16G A17C A41U U55A C76U C85A,≤ -4.2
6,U15G C103G U151G,≤ -4.2
7,C14U A49G U53A C85U C116A,-3.48
8,C14U C32U U61C A91U,≤ -4.2
9,U15G U148A,-2.78
10,A16C A60U A66C C76U U78C C93A,≤ -4.2
11,A16C C32A A49U U102G C129G,≤ -4.2
12,U15G C38U,-0.133
13,C14U U15C A23U A41U C85A G124U,≤ -4.2
14,C14U A40U A41U A49U A73G G92A C125U,-4.11
15,A16U C18G G94A,-2.97
16,A17C A22C A73C A91C C95G U101A G143A,≤ -4.2
17,C14U C85A G141C,-2.63
18,U15A A24G A98G C99A,≤ -4.2
19,A16C A37C A39C C85U,≤ -4.2
20,C14U U146G,-1.34
21,C14U U55G,-1.61
22,U15A A49C U53A G86U,≤ -4.2
23,A16G G48C A52G,-1.13
24,U15C A52C C85G G94A,0.00508

row,Variant,polymerase ribozyme fitness (log ratio)
1,U15C G42U G50U C93G C132A G140A U148C A150U,≤ -4.2
2,A16C U31A,-0.733
3,A16G A24U A73U,-2.25
4,A16U U61G U77C C85A G92C U144A,≤ -4.2
5,A16G C54A C116A G133C,-2.21
6,U15C A40U G59C C85U,1.15
7,A16U C85U,-2.1
8,U15A A23U A39C A47U C96G G141U,≤ -4.2
9,U15A G84A C93A U134G,-4.09
10,C14U U78C,-2.43
11,U15G U139A,≤ -4.2
12,A16C A22U A26C A41U A52G C57U G58C G68U A91C C95G U139C G140A,≤ -4.2
13,U15C C54U,0.268
14,A16C A47C U55A,-2.23
15,C14U A52U C85G G133C A142G,≤ -4.2
16,C14U G46A U55G,-3.69
17,A16U A19U A20U A40U G86U C96U,≤ -4.2
18,C14U C18A U61C U139G,-4.16
19,A16U G83C C129G A137C U145C,≤ -4.2
20,A16G A73G,-0.494
21,U15A U111C G112U,-3.91
22,U15C C36A U55A A106U C108U A115G G117U G140A,≤ -4.2
23,A16G A52C C87A U102A C118G C132U,≤ -4.2
